Measurements taken from the supplement of paper PMC10065799, “High-throughput profiling of sequence recognition by tyrosine kinases and SH2 domains using bacterial peptide display” (eLife, 2023).

Columns and labels:
Hck = Hck (UniProt P08631); assay: phosphorylation enrichment, bacterial display (enrichment ratio); higher = better substrate or ligand; peptides without Tyr show the background
c-Src = assay: as above
Jak2 = Jak2 (UniProt O60674); assay: as above
Fyn = Fyn (UniProt P06241); assay: as above
Fyn, sequence (P06241 whole entry, looked up): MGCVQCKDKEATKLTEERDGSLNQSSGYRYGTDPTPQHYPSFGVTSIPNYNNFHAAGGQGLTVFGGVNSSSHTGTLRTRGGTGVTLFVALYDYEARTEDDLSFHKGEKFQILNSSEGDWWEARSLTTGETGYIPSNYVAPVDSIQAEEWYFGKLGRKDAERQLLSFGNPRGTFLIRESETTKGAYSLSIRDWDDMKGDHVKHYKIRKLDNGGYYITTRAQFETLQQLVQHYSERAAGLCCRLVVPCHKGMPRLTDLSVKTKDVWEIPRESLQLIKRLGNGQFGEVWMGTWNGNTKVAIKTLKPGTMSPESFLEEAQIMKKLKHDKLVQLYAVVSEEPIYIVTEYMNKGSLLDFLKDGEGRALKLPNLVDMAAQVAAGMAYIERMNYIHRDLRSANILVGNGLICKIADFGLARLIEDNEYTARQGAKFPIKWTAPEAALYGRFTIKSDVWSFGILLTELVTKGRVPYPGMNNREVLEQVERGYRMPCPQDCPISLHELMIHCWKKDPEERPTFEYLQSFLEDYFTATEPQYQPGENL

EPHB2 = EPHB2 (UniProt P29323); assay: as above
EPHB1 = EPHB1 (UniProt P54762); assay: as above
EPHB1, sequence (P54762 whole entry, looked up): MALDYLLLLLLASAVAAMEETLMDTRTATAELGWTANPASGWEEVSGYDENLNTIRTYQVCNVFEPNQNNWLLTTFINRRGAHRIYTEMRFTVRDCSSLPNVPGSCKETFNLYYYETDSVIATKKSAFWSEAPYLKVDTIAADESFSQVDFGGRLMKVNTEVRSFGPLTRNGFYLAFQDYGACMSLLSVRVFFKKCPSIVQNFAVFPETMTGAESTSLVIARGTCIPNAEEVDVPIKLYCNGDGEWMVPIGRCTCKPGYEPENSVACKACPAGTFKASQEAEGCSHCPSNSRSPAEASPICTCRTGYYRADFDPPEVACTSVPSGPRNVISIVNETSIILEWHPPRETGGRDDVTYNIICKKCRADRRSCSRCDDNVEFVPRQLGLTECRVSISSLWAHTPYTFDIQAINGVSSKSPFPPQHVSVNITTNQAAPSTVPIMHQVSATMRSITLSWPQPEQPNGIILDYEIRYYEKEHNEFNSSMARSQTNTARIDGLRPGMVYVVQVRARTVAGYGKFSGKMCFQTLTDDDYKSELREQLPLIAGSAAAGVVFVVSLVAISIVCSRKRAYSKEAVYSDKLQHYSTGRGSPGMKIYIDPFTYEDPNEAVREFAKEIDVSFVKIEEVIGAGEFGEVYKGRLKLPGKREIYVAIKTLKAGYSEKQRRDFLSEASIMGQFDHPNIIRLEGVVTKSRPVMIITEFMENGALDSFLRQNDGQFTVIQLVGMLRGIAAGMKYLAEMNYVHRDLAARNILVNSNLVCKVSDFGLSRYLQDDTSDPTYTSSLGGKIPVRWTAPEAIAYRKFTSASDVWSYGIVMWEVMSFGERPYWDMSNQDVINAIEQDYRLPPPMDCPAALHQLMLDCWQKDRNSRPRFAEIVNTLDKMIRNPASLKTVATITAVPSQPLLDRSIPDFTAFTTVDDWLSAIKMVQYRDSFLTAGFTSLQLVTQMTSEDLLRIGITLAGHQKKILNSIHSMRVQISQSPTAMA

AncSZ = assay: as above
Fer (mouse) = assay: as above
MERTK = MERTK (UniProt Q12866); assay: as above
MERTK, sequence (Q12866 whole entry, looked up): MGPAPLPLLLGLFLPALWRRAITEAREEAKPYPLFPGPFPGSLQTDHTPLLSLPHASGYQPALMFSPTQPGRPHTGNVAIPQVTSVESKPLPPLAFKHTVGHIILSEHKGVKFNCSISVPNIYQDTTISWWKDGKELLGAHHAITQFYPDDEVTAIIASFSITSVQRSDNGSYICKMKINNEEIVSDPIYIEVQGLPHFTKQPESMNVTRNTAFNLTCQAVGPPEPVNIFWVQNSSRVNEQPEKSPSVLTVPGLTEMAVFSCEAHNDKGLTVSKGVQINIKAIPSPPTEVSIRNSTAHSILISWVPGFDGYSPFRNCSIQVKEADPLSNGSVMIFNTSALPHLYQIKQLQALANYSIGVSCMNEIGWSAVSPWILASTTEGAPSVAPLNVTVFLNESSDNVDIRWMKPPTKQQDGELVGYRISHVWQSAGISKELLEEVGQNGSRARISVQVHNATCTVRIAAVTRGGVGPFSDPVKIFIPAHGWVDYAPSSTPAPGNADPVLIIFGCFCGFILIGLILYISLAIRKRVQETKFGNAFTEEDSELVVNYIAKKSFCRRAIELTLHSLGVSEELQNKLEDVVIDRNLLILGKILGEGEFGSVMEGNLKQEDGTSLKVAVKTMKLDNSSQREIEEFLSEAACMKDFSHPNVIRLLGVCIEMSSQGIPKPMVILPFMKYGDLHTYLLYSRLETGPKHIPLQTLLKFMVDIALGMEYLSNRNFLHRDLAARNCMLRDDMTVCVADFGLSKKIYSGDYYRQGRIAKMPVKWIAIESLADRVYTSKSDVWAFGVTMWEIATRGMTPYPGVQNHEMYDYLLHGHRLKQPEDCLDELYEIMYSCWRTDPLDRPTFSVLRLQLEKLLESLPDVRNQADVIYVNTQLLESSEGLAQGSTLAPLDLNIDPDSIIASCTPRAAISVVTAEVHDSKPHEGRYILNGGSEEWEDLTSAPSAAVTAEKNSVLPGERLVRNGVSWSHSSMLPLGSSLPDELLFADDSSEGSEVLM

FGFR3 = FGFR3 (UniProt P22607); assay: as above
Fes = Fes (UniProt P07332); assay: as above
Fes, sequence (P07332 whole entry, looked up): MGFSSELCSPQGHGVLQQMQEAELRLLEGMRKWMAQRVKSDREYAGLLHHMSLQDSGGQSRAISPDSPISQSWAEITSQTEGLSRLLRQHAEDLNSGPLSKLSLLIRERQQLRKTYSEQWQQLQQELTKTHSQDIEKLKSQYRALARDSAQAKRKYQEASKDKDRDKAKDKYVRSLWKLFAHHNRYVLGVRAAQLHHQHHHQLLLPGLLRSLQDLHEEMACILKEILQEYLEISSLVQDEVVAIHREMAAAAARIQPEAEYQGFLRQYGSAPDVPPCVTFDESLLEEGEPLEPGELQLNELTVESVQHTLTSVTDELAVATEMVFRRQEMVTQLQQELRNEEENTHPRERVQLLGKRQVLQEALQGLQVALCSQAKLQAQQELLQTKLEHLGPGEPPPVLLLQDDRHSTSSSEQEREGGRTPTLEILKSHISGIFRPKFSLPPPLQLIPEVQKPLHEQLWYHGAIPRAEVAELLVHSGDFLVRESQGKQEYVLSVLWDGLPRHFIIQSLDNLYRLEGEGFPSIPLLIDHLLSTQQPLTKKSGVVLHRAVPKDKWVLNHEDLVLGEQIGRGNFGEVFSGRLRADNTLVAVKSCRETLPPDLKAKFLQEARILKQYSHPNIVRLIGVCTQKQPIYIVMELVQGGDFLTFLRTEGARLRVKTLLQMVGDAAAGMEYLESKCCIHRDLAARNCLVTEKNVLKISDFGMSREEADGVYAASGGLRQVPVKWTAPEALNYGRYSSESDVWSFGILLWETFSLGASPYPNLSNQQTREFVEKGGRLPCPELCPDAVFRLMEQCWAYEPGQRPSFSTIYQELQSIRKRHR

c-Abl (mouse) = assay: as above
FGFR1 = FGFR1 (UniProt P11362); assay: as above
FGFR1, sequence (P11362 whole entry, looked up): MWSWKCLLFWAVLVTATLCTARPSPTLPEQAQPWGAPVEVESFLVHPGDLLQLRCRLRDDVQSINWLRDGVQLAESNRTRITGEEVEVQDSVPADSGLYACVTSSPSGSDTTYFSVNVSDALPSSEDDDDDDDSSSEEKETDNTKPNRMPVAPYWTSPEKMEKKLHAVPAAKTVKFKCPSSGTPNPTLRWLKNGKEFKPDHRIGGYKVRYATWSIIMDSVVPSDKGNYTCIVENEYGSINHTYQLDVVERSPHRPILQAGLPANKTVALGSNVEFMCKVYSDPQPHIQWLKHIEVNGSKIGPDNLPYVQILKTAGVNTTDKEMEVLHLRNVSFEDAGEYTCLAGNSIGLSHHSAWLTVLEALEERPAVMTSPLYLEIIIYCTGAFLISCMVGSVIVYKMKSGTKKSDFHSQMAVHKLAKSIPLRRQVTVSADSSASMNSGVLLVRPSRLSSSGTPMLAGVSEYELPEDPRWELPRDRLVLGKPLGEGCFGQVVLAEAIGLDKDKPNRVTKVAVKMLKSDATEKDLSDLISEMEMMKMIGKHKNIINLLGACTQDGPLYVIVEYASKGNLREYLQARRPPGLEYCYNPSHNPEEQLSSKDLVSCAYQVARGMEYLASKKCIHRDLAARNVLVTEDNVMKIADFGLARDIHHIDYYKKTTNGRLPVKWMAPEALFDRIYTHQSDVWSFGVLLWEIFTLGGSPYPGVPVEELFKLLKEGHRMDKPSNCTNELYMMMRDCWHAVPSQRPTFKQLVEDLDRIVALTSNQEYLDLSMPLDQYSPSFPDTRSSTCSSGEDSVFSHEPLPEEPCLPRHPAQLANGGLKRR

c-Src SH2 = assay: SH2 binding enrichment of the phosphorylated peptide, bacterial display (enrichment ratio); higher = better substrate or ligand; peptides without Tyr show the background
SHP2-C SH2 = assay: as above
Grb2 SH2 = Grb2 SH2 (UniProt P62993); assay: as above
Grb2 SH2, sequence (P62993 whole entry, looked up, the tested form may be a part): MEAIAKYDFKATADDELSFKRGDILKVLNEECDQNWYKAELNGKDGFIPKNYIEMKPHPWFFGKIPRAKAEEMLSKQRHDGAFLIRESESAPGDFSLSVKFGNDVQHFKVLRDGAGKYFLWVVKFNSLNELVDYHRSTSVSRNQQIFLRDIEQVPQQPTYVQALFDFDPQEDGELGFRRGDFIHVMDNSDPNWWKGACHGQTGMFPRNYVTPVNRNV
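Wherever SH2 binding enrichment of the phosphorylated peptide, bacterial display is given: peptide library displayed on the E. coli surface as eCPX fusions, selected cells deep-sequenced, score is each peptide's frequency after selection divided by its frequency in the input.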
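Wherever phosphorylation enrichment, bacterial display is given: 11-residue human phosphosite peptides and single-mutation variants displayed on the E. coli surface, counted by deep sequencing, each peptide's frequency after selection divided by its frequency in the unselected input library; frequency after pTyr selection over input frequency; kinase dosed for 20-30% of maximal phosphorylation in three min.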

Hck, sequence (P08631 whole entry, looked up): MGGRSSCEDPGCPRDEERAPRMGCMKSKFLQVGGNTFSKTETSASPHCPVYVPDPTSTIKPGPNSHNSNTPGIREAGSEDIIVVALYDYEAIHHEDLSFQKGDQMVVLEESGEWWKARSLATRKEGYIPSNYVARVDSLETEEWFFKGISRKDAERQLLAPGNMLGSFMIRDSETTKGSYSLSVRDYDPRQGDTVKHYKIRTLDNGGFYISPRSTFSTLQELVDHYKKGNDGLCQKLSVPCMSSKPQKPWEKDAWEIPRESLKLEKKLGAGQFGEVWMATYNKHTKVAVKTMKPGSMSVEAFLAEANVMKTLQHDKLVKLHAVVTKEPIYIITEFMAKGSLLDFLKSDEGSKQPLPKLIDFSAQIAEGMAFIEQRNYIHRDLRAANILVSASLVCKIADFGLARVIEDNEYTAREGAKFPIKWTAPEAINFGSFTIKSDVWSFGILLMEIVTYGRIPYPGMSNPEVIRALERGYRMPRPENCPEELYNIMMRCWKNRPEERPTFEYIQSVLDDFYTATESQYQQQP

Sequence	phosphorylation enrichment (Hck)	phosphorylation enrichment (c-Src)	phosphorylation enrichment (Jak2)	phosphorylation enrichment (Fyn)	phosphorylation enrichment (EPHB2)	phosphorylation enrichment (EPHB1)	phosphorylation enrichment (AncSZ)	phosphorylation enrichment (Fer (mouse))	phosphorylation enrichment (MERTK)	phosphorylation enrichment (FGFR3)	phosphorylation enrichment (Fes)	phosphorylation enrichment (c-Abl (mouse))	phosphorylation enrichment (FGFR1)	SH2 binding enrichment (c-Src SH2)	SH2 binding enrichment (SHP2-C SH2)	SH2 binding enrichment (Grb2 SH2)
QNAGDYYDLYG [PTPN11_Y62_T59A]	5.32	4.65	3.1	5.41	13.6	15.5	4.8	1.56	3	20.3	1.25	1.04	19.5	0.687	0.625	0.897
QNTADYFDLFG [PTPN11_Y62_G60A_YF]	0.722	0.693	6.89	1.32	13.8	15.8	5.82	0.951	0.691	16.9	1.53	1.13	17.9	0.558	0.564	0.924
QPGTDYKIYRY [FN1_Y1970_L1974R]	0.468	0.527	0.968	0.468	0.555	0.383	1.02	0.618	0.499	0.882	0.866	0.742	0.583	0.516	0.791	0.734
QQLDEYQELLD [LMNA_Y359]	0.684	0.726	1.3	0.669	0.757	0.776	1.63	0.598	0.6	1.18	1.57	1.01	0.615	0.452	0.55	0.798
QRPGLYDRPGA [HNRNPH2_Y210_P209L]	1.22	0.806	0.829	0.741	0.512	0.933	0.737	0.802	0.852	0.773	0.943	1.2	0.651	1.59	0.513	0.804
QRRFLYFFSFL [PTEN_Y176_V175L_YF]	0.68	0.567	1.5	0.795	0.817	0.761	1.61	0.862	0.886	1.16	1.85	1.09	0.978	0.774	0.779	1.05
QRTMKYTTATE [MCCC1_Y41_G46E]	0.966	0.706	0.975	0.781	1.43	0.791	1.43	0.607	0.862	1.11	1.23	0.496	0.683	0.521	0.635	0.768
QSQQAYQEAFE [YWHAZ_Y149]	0.48	0.578	1.28	0.397	0.47	0.355	1.3	0.597	0.541	0.693	1.22	1.71	0.488	1.32	0.526	0.873
